The values that follow come from publication PMC11409006 (Computational and Structural Biotechnology Journal, 2024).

Conditions in all cases: both partners purified
Test [1] concerns the target T1, C-terminal domain of the Plasmodium falciparum circumsporozoite protein, PfCSP-Cext (Plasmodium falciparum; strain not …, UniProt Q7K740).
T1 construct: Plasmodium falciparum circumsporozoite protein, C-terminal domain (alpha-TSR) with unstructured N- and C-terminal extensions; the compactly folded PfCSP-C domain is aa39-100 of PfCSP-Cext; K42, K45, E46, L48, N49 of PfCSP-Cext equal K314, K317, E318, L320, N321 of PfCSP; numbers count on: the construct PfCSP-Cext; also called PfaCSP-Cext; PfCSP-C (as named in the ITC sections); source: …
The test can be described thus: native MS; ITEM-TWO: nanoESI of the mixture (sdAbCSP1 : PfCSP-Cext = 1 : 3.4) in 200 mM ammonium acetate, pH 6.7; complex ions isolated and dissociated in the gas phase by stepwise raised collision cell voltage (2-120 V); apparent gas-phase constants; triplicate.

Test [2] concerns the target T1, C-terminal domain of the Plasmodium …. In words: ITC; sdAbCSP1 (45 µM) titrated into the cell with PfCSP-C (4 µM); 20 mM Tris-HCl, 150 mM NaCl, pH 8.0; 25 °C; one set of sites model; triplicate. Background: In ITC the heat of successive injections is recorded.
The next test deals with T2, PfCSP-Cext (Plasmodium falciparum, UniProt Q7K740).
T2 construct: circumsporozoite protein (PfCSP) of Plasmodium falciparum, C-terminal domain with non-structured N- and C-terminal extensions; the compactly folded PfCSP-C domain is aa39-100; aa114-127 contain the His-tag; numbers count on: the PfCSP-Cext construct; also called C-terminal domain of the Plasmodium falciparum circumsporozoite protein; PfCSP-C (so called in the ITC methods and results); source: E. …
In words: ITC; sdAbCSP1 (45 µM) titrated into the cell with PfCSP-C (4 µM); 25 °C; 20 mM Tris-HCl, 150 mM NaCl, pH 8.0; one set of sites model; triplicate.

T1 sequence (Q7K740 310-374): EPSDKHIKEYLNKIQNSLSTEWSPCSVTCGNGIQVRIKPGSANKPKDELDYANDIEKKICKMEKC
T2 sequence (Q7K740 310-374): as above

B1: camelid single domain antibody sdAbCSP1 (VHH)
VHH: QVQLQESGGGLVQAGGSLRLSCAASGRTFSSYSMGWFRLVPGKEREFVARISSSGGNTYYADSVRGRFTISRDNAKNTVYLQMNSLKPEDTAVYYCAADLLQFGRSSRAADYDYWGQGTQVTVSS
notes: full length is aa1-144; CDR1 aa25-33, CDR2 aa52-57, HV4 aa74-77, CDR3 aa100-118; aa1-125 is the form without non-structured extensions; source: recombinantly expressed
Regarding B1, in test [1], the “KD m0g# (apparent quasi equilibrium constant of gas-phase complex dissociation)” value came to 3.7e-12 s⁻¹, the “dH m0g# (apparent enthalpy of gas-phase complex dissociation)” value came out at 12 kcal/mol and the “kD m0g# (apparent rate constant of gas-phase complex dissociation)” value is 1e+10 Ø (unitless number). In test [2], this molecule came in with a dissociation constant (Kd) of 0.5 nM and a dH of -8.34 kcal/mol.

B2: sdAbCSP1 (VHH)
VHH: QVQLQESGGGLVQAGGSLRLSCAASGRTFSSYSMGWFRLVPGKEREFVARISSSGGNTYYADSVRGRFTISRDNAKNTVYLQMNSLKPEDTAVYYCAADLLQFGRSSRAADYDYWGQGTQVTVSS
notes: 144 residues (aa1-144); CDR1 aa25-33, CDR2 aa52-57, HV4 aa74-77, CDR3 aa100-118; aa106-108 are SSR; aa1-125 are the folded domain; also called camelid single domain antibody sdAbCSP1; pQ-sdAbCSP1 (form with N-terminal pyro-glutamine); source: recombinantly expressed
For the molecule B2, the “stoichiometry N” value with PfCSP-Cext came out at 0.9 ± 0.12.

Broadly, the Kd is the constant that tells how readily two partners part at equilibrium. The term stoichiometry N denotes the number of molecules, sites or subunits per partner or assembly.
